Measured values reported in article PMC9279154 (Nature, 2022).

B1: His-tagged Loqs-PD, wild type [Drosophila melanogaster] / Drosophila melanogaster Dicer-2 (Dcr-2), wild type [Drosophila melanogaster] (parent complex)
chain 1: MDQENFHGSSLPQQLQNLHIQPQQASPNPVQTGFAPRRHYNNLVGLGNGNAVSGSPVKGAPLGQRHVKLKKEKISAQVAQLSQPGQLQLSDVGDPALAGGSGLQGGVGLMGVILPSDEALKFVSETDANGLAMKTPVSILQELLSRRGITPGYELVQIEGAIHEPTFRFRVSFKDKDTPFTAMGAGRSKKEAKHAAARALIDKLIGAQLPESPSSSAGPSVTGLTVAGSGGDGNANATGGGDASDKTVGNPIGWLQEMCMQRRWPPPSYETETEVGLPHERLFTIACSILNYREMGKGKSKKIAKRLAAHRMWMRLQETPIDSGKISDSICGELEGEVSIIQDIDRYEQVSKDFEFIKI
chain 2: MEDVEIKPRGYQLRLVDHLTKSNGIVYLPTGSGKTFVAILVLKRFSQDFDKPIESGGKRALFMCNTVELARQQAMAVRRCTNFKVGFYVGEQGVDDWTRGMWSDEIKKNQVLVGTAQVFLDMVTQTYVALSSLSVVIIDECHHGTGHHPFREFMRLFTIANQTKLPRVVGLTGVLIKGNEITNVATKLKELEITYRGNIITVSDTKEMENVMLYATKPTEVMVSFPHQEQVLTVTRLISAEIEKFYVSLDLMNIGVQPIRRSKSLQCLRDPSKKSFVKQLFNDFLYQMKEYGIYAASIAIISLIVEFDIKRRQAETLSVKLMHRTALTLCEKIRHLLVQKLQDMTYDDDDDNVNTEEVIMNFSTPKVQRFLMSLKVSFADKDPKDICCLVFVERRYTCKCIYGLLLNYIQSTPELRNVLTPQFMVGRNNISPDFESVLERKWQKSAIQQFRDGNANLMICSSVLEEGIDVQACNHVFILDPVKTFNMYVQSKGRARTTEAKFVLFTADKEREKTIQQIYQYRKAHNDIAEYLKDRVLEKTEPELYEIKGHFQDDIDPFTNENGAVLLPNNALAILHRYCQTIPTDAFGFVIPWFHVLQEDERDRIFGVSAKGKHVISINMPVNCMLRDTIYSDPMDNVKTAKISAAFKACKVLYSLGELNERFVPKTLKERVASIADVHFEHWNKYGDSVTATVNKADKSKDRTYKTECPLEFYDALPRVGEICYAYEIFLEPQFESCEYTEHMYLNLQTPRNYAILLRNKLPRLAEMPLFSNQGKLHVRVANAPLEVIIQNSEQLELLHQFHGMVFRDILKIWHPFFVLDRRSKENSYLVVPLILGAGEQKCFDWELMTNFRRLPQSHGSNVQQREQQPAPRPEDFEGKIVTQWYANYDKPMLVTKVHRELTPLSYMEKNQQDKTYYEFTMSKYGNRIGDVVHKDKFMIEVRDLTEQLTFYVHNRGKFNAKSKAKMKVILIPELCFNFNFPGDLWLKLIFLPSILNRMYFLLHAEALRKRFNTYLNLHLLPFNGTDYMPRPLEIDYSLKRNVDPLGNVIPTEDIEEPKSLLEPMPTKSIEASVANLEITEFENPWQKYMEPVDLSRNLLSTYPVELDYYYHFSVGNVCEMNEMDFEDKEYWAKNQFHMPTGNIYGNRTPAKTNANVPALMPSKPTVRGKVKPLLILQKTVSKEHITPAEQGEFLAAITASSAADVFDMERLEILGDSFLKLSATLYLASKYSDWNEGTLTEVKSKLVSNRNLLFCLIDADIPKTLNTIQFTPRYTWLPPGISLPHNVLALWRENPEFAKIIGPHNLRDLALGDEESLVKGNCSDINYNRFVEGCRANGQSFYAGADFSSEVNFCVGLVTIPNKVIADTLEALLGVIVKNYGLQHAFKMLEYFKICRADIDKPLTQLLNLELGGKKMRANVNTTEIDGFLINHYYLEKNLGYTFKDRRYLLQALTHPSYPTNRITGSYQELEFIGDAILDFLISAYIFENNTKMNPGALTDLRSALVNNTTLACICVRHRLHFFILAENAKLSEIISKFVNFQESQGHRVTNYVRILLEEADVQPTPLDLDDELDMTELPHANKCISQEAEKGVPPKGEFNMSTNVDVPKALGDVLEALIAAVYLDCRDLQRTWEVIFNLFEPELQEFTRKVPINHIRQLVEHKHAKPVFSSPIVEGETVMVSCQFTCMEKTIKVYGFGSNKDQAKLSAAKHALQQLSKCDA

Variants of: B1
Assay: pull-down; parent: 1; read off a plot

Row | Variant | ratio to parent
1 | chain 1 I359D | ~0.04
2 | chain 1 F356D | ~0.06
3 | chain 1 Y347A | ~0.1
